According to patent publication US20110142842A1 (MEDINNOVA, published 2011):

Molecular target: HLA-A*0201 (human, UniProt A*02:01)
Test: REVEAL MHC binding assay (ProImmune)

Row | Binder | % Pass/fail control
1 | FVANAIIHL [Peptide ID 111 FVANAIIHL (CD52)] | 276 % of pass/fail control
2 | VLDIYGFEV [Peptide ID 18 VLDIYGFEV (HA-2)] | 161 % of pass/fail control
3 | LLDPKLCYL [Peptide ID 13 LLDPKLCYL (TCR_TV)] | 204 % of pass/fail control
4 | VIVGSIIMV [Peptide ID 110 VIVGSIIMV (CD53)] | 113 % of pass/fail control
5 | LLQPFMFRV (Modified peptide) [Peptide ID 135 LLQPFMFRV (MPO, modified peptide)] | 329 % of pass/fail control
6 | SLQSGILTL [Peptide ID 11 SLQSGILTL (CD127)] | 181 % of pass/fail control
7 | SLSEEVTYV (Modified peptide) [Peptide ID 145 SLSEEVTYV (CLL-1, modified peptide)] | 191 % of pass/fail control
8 | ELDEELHYV (Modified peptide) [Peptide ID 137 ELDEELHYV (CD33, modified peptide)] | 218 % of pass/fail control
9 | LLWAGALAV (Modified peptide) [Peptide ID 148 LLWAGALAV (CD33, modified peptide)] | 272 % of pass/fail control
10 | SLAQVVMKV [Peptide ID 20 SLAQVVMKV (CD11a)] | 155 % of pass/fail control
11 | SLYGPGSYL [Peptide ID 15 SLYGPGSYL (HA-1)] | 198 % of pass/fail control
12 | TVQEGLCVL [Peptide ID 123 TVQEGLCVL (CD33)] | 75.2 % of pass/fail control
13 | LLAPRFLEV (Modified peptide) [Peptide ID 142 LLAPRFLEV (CD50, modified peptide)] | 218 % of pass/fail control
14 | PLWGGIMYI [Peptide ID 10 PLWGGIMYI (CD20)] | 155 % of pass/fail control
15 | LLLSGAARV (Modified peptide) [Peptide ID 138 LLLSGAARV (PR3, modified peptide)] | 210 % of pass/fail control
16 | HMRPLAIWL [Peptide ID 106 HMRPLAIWL (CD19)] | 56.2 % of pass/fail control
17 | ILYPINILV (Modified peptide) [Peptide ID 149 ILYPINILV (CD11a, modified peptide)] | 321 % of pass/fail control
18 | RLLFFLLFL [Peptide ID 112 RLLFFLLFL (CD19)] | 42.3 % of pass/fail control
19 | FLPDAFVTM [Peptide ID 16 FLPDAFVTM (TdT)] | 164 % of pass/fail control
20 | YLMDLSYSV (Modified peptide) [Peptide ID 134 YLMDLSYSV (CD18, modified peptide)] | 242 % of pass/fail control
21 | GLADVAVGV (Modified peptide) [Peptide ID 146 GLADVAVGV (CD11a, modified peptide)] | 213 % of pass/fail control
22 | FLQDTFPQV (Modified peptide) [Peptide ID 132 FLQDTFPQV (CD127, modified peptide)] | 216 % of pass/fail control
23 | VMNGTDPEL [Peptide ID 120 VMNGTDPEL (CD2)] | 200 % of pass/fail control
24 | YLRPGQAAV (Modified peptide) [Peptide ID 144 YLRPGQAAV (CD18, modified peptide)] | 227 % of pass/fail control
25 | SLFAAISGM [Peptide ID 124 SLFAAISGM (CD20)] | 203 % of pass/fail control
26 | SMFHVTLKI [Peptide ID 128 SMFHVTLKI (CLL-1)] | 307 % of pass/fail control
27 | VLAEASASQ [Peptide ID 125 VLAEASASQ (FLT3)] | 103 % of pass/fail control
28 | ALPAALAVI [Peptide ID 127 ALPAALAVI (CD7)] | 264 % of pass/fail control

Row | Binder | % Pass/fail control
29 | YLLDGILFI [Peptide ID 1 YLLDGILFI (TCR_TV)] | 201 % of pass/fail control
30 | FLVNTVLWV [Peptide ID 12 FLVNTVLWV (CD64)] | 133 % of pass/fail control
31 | LLFLTPMEV [Peptide ID 108 LLFLTPMEV (CD19)] | 283 % of pass/fail control
32 | LLIPAGIYV (Modified peptide) [Peptide ID 136 LLIPAGIYV (CD20, modified peptide)] | 275 % of pass/fail control
33 | ELLDVSWLV (Modified peptide) [Peptide ID 150 ELLDVSWLV (TdT, modified peptide)] | 239 % of pass/fail control
34 | SLFLGILSV (also called peptide #19; pep 19) [Peptide ID 19 SLFLGILSV (CD20)] | 160 % of pass/fail control
35 | FLPDAFVTV (Modified peptide) [Peptide ID 133 FLPDAFVTV (TdT, modified peptide)] | 204 % of pass/fail control
36 | ALAVISFLL [Peptide ID 114 ALAVISFLL (CD7)] | 221 % of pass/fail control
37 | KLSLGLPGL [Peptide ID 118 KLSLGLPGL (CD19)] | 209 % of pass/fail control
38 | CMAGARVQV [Peptide ID 117 CMAGARVQV (CD50)] | 158 % of pass/fail control
39 | YLHVALDLL [Peptide ID 107 YLHVALDLL (MPO)] | 278 % of pass/fail control
40 | KIVEWDWKI [Peptide ID 109 KIVEWDWKI (CD48)] | 236 % of pass/fail control
41 | LLAEVTLAV (Modified peptide) [Peptide ID 147 LLAEVTLAV (CD53, modified peptide)] | 254 % of pass/fail control
42 | KLGGDLLRA [Peptide ID 129 KLGGDLLRA (CD18)] | 229 % of pass/fail control
43 | LLQRPGLQL [Peptide ID 126 LLQRPGLQL (CD64)] | 231 % of pass/fail control
44 | VLWHWLLRT [Peptide ID 105 VLWHWLLRT (CD19)] | 337 % of pass/fail control
45 | FLQPLFLVV (Modified peptide) [Peptide ID 141 FLQPLFLVV (HA-1, modified peptide)] | 270 % of pass/fail control
46 | LLFIVVLTL [Peptide ID 119 LLFIVVLTL (FLT3)] | 114 % of pass/fail control
47 | ILLLVIWKA [Peptide ID 130 ILLLVIWKA (CD18)] | 56.7 % of pass/fail control
48 | ALYDKTKRI [Peptide ID 115 ALYDKTKRI (TdT_TV2)] | 260 % of pass/fail control
49 | SLTLGNVFV [Peptide ID 122 SLTLGNVFV (CD53)] | 150 % of pass/fail control
50 | LLLREHNRL [Peptide ID 113 LLLREHNRL (MPO)] | 195 % of pass/fail control
51 | LLMVFVALL [Peptide ID 121 LLMVFVALL (CD2)] | 114 % of pass/fail control
52 | GLYQGLSTV (Modified peptide) [Peptide ID 140 GLYQGLSTV (TCR_TV, modified peptide)] | 214 % of pass/fail control
53 | ALARGLPGV (Modified peptide) [Peptide ID 143 ALARGLPGV (CD7, modified peptide)] | 297 % of pass/fail control
54 | WMGGVSEPL [Peptide ID 116 WMGGVSEPL (MPO)] | 199 % of pass/fail control
55 | YLLRVIETL [Peptide ID 14 YLLRVIETL (HA-1)] | 179 % of pass/fail control
